# In patent publication US20150064204A1 (Amgen, published 2015):
# Residue numbers refer to the chain shown, from its start.
# T1: human GITR (human, UniProt Q9Y5U5 26-241)
# T1 sequence: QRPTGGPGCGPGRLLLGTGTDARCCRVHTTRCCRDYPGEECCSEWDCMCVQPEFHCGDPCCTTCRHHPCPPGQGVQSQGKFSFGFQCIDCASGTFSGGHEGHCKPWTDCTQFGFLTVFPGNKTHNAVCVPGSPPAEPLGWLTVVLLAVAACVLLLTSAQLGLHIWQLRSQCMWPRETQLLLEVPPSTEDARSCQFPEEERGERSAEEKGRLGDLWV
# B1: 5H7 (antibody, human IgG1, kappa, V domains shown)
# VH: QVQLQESGPGLVKPSQTLSLTCTVSGGSISSGGYFWSWIRQHPGKGLEWIGYIYYSGTTYYNPSLKSRVTISIDTSKNHFSLKLSSVTAADTAVYYCARDLFYYDSSGPRGFDPWGQGTLVTVSS
# VL: EIVLTQSPGTLSLSPGERATLSCRASQTVSSNYLAWYQQKPGQAPRLLIYGSSTRATGIPDRFSGSGSGTDFTLTISRLEPEDFAVYYCQQYDSSPWTFGQGTKVEIKR
# notes: Parental fully human antibody; also called Ab17; SS-10943
# B2: 5H7v1 (antibody, human IgG1, kappa, V domains shown)
# VH: B1 VH with Q16E, H42P, H79Q, D105E
# VL: B1 VL
# B3: 5H7v3 (antibody, human IgG1, kappa, V domains shown)
# VH: B1 VH with Q16E, H42P, H79Q, D113E
# VL: B1 VL
# notes: Engineered variant; also called Ab27; SS-16913
# B4: 5H7v5 (antibody, human IgG1, kappa, V domains shown)
# VH: B1 VH with Q16E, H42P, H79Q, D105E, D113E
# VL: B1 VL
# B5: 5H7v22 (antibody, human IgG1, kappa, V domains shown)
# VH: B1 VH with Q16E, H42P, H79Q, S106T, D113E
# VL: B1 VL with D93E
# notes: Engineered variant; also called Ab38; SS-16932
# B6: 5H7v7 (antibody, human IgG1, kappa, V domains shown)
# VH: B1 VH with Q16E, H42P, H79Q, S106T, D113E
# VL: B1 VL
# notes: Engineered variant; also called Ab29; SS-16917
# B7: 5H7v11 (antibody, human IgG1, kappa, V domains shown)
# VH: B1 VH with Q16E, H42P, H79Q
# VL: B1 VL with S94T
# B8: 5H7v17 (antibody, human IgG1, kappa, V domains shown)
# VH: B1 VH with Q16E, H42P, H79Q, S106T
# VL: B1 VL with S94T
# B9: 5H7v18 (antibody, human IgG1, kappa, V domains shown)
# VH: B1 VH with Q16E, H42P, H79Q, D113E
# VL: B1 VL with S94T
# notes: Engineered variant; also called Ab36; SS-16928
# B10: 5H7v13 (antibody, human IgG1, kappa, V domains shown)
# VH: B1 VH with Q16E, H42P, H79Q, S106T
# VL: B1 VL with D93E
# B11: 5H7v10 (antibody, human IgG1, kappa, V domains shown)
# VH: B1 VH with Q16E, H42P, H79Q
# VL: B1 VL with D93E
# B12: 5H7v14 (antibody, human IgG1, kappa, V domains shown)
# VH: B1 VH with Q16E, H42P, H79Q, D113E
# VL: B1 VL with D93E
# notes: Engineered variant; also called Ab34; SS-16924
# B13: 7A10 (antibody, human IgG1, kappa, V domains shown)
# VH: QVQLVESGGGVVQPGRSLRLSCAASGFTFSSYGMHWVRQAPGKGLEWMAVIWYVGSNKYYADSVKGRFTISRDNSKNTLYLQMNSLSAEDTAVYYCARGGELGRDYYSGMDVWGQGTTVTVSS
# VL: DIQMTQSPSSLSASVGDRVTITCRASQGIRNDLGWYQQKPGKAPKRLIYAASSLQSGVPSRFSGSGSGTEFTLTISSLQPEDFATYYCQQHNSYPWTFGQGTKVEIKR
# notes: Parental fully human antibody; also called Ab18; SS-10944
# B14: 33C9v1 (antibody, human IgG1, kappa, V domains shown)
# VH: B13 VH with L4V, M48V, A49S, V54E, S87R, E101L, R104Y, D105Y, S108Y
# VL: B13 VL with R46L, A50D, Q89L, N92H
# notes: Engineered variant; also called Ab50; SS-16948
# B15: 33C9v4 (antibody, human IgG1, kappa, V domains shown)
# VH: B13 VH with L4V, M48V, A49S, V54E, D62E, S87R, E101L, R104Y, D105Y, S108Y
# VL: B13 VL with R46L, A50D, Q89L, N92H
# notes: Engineered variant; also called Ab53; SS-16950
# B16: 33C9v3 (antibody, human IgG1, kappa, V domains shown)
# VH: B13 VH with L4V, M48V, A49S, V54E, S63T, S87R, E101L, R104Y, D105Y, S108Y
# VL: B13 VL with A50D, Q89L, N92H
# notes: Engineered variant; also called Ab52; SS-16949
# B17: 33C9v5 (antibody, human IgG1, kappa, V domains shown)
# VH: B13 VH with L4V, M48V, A49S, V54E, S63T, S87R, E101L, R104Y, D105Y, S108Y
# VL: B13 VL with R46L, A50D, Q89L, N92H
# notes: Engineered variant; also called Ab54; SS-16951
# B18: 7A10v3 (antibody, human IgG1, kappa, V domains shown)
# VH: B13 VH with D62E, S87R
# VL: B13 VL
# notes: Engineered variant; also called Ab41; SS-16939
# B19: 33C9 (antibody, human IgG1, kappa, V domains shown)
# VH: B13 VH with L4V, M48V, A49S, V54E, S87R, E101L, R104Y, D105Y, S108Y
# VL: B13 VL with A50D, Q89L, N92H
# notes: Parental fully human antibody; also called Ab2; SS-12413
# B20: 9H6v6 (antibody, human IgG1, kappa, V domains shown)
# VH: B13 VH with A23V, V37I, M48V, V54E, S63T, S87R, E101R, R104K
# VL: B13 VL with R46L, A51T, Q89L, S93T
# notes: Engineered variant; also called Ab49; SS-16947
# B21: 9H6v2 (antibody, human IgG1, kappa, V domains shown)
# VH: B13 VH with A23V, V37I, M48V, V54E, S87R, E101R, R104K
# VL: B13 VL with R46L, A51T, Q89L, S93T
# notes: Engineered variant; also called Ab45; SS-16944
# B22: 41G5v5 (antibody, human IgG1, kappa, V domains shown)
# VH: B13 VH with M48V, V54P, S63T, S87R, D105Y, S108Y
# VL: B13 VL with I21V, R46L, Q89L, S93N, E105D
# notes: Engineered variant; also called Ab59; SS-16955
# B23: 41G5v3 (antibody, human IgG1, kappa, V domains shown)
# VH: B13 VH with M48V, V54P, S63T, S87R, D105Y, S108Y
# VL: B13 VL with I21V, Q89L, S93N, E105D
# notes: Engineered variant; also called Ab57; SS-16953
# B24: 7A10v2 (antibody, human IgG1, kappa, V domains shown)
# VH: B13 VH with S87R
# VL: B13 VL with R46L
# notes: Engineered variant; also called Ab40; SS-16938
# B25: 7A10v5 (antibody, human IgG1, kappa, V domains shown)
# VH: B13 VH with D62E, S87R
# VL: B13 VL with R46L
# notes: Engineered variant; also called Ab43; SS-16941
# B26: 9H6 (antibody, human IgG1, kappa, V domains shown)
# VH: B13 VH with A23V, V37I, M48V, V54E, S87R, E101R, R104K
# VL: B13 VL with K45N, A51T, Q89L, S93T
# notes: Parental fully human antibody; also called Ab19; SS-10945
# B27: 41G5 (antibody, human IgG1, kappa, V domains shown)
# VH: B13 VH with M48V, V54P, S87R, D105Y, S108Y
# VL: B13 VL with I21V, Q89L, S93N, E105D
# notes: Parental fully human antibody; also called Ab7; SS-12428
# B28: 9H6v1 (antibody, human IgG1, kappa, V domains shown)
# VH: B13 VH with A23V, V37I, M48V, V54E, S87R, E101R, R104K
# VL: B13 VL with A51T, Q89L, S93T
# notes: Engineered variant; also called Ab44; SS-16943
# B29: 9H6v5 (antibody, human IgG1, kappa, V domains shown)
# VH: B13 VH with A23V, V37I, M48V, V54E, D62E, S87R, E101R, R104K
# VL: B13 VL with R46L, A51T, Q89L, S93T
# notes: Engineered variant; also called Ab48; SS-16946
# B30: 41G5v4 (antibody, human IgG1, kappa, V domains shown)
# VH: B13 VH with M48V, V54P, D62E, S87R, D105Y, S108Y
# VL: B13 VL with I21V, R46L, Q89L, S93N, E105D
# notes: Engineered variant; also called Ab58; SS-16954
# B31: 41G5v1 (antibody, human IgG1, kappa, V domains shown)
# VH: B13 VH with M48V, V54P, S87R, D105Y, S108Y
# VL: B13 VL with I21V, R46L, Q89L, S93N, E105D
# notes: Engineered variant; also called Ab55; SS-16952
# B32: 9H6v4 (antibody, human IgG1, kappa, V domains shown)
# VH: B13 VH with A23V, V37I, M48V, V54E, S63T, S87R, E101R, R104K
# VL: B13 VL with A51T, Q89L, S93T
# notes: Engineered variant; also called Ab47; SS-16945
# B33: 7A10v4 (antibody, human IgG1, kappa, V domains shown)
# VH: B13 VH with S63T, S87R
# VL: B13 VL
# notes: Engineered variant; also called Ab42; SS-16940
# Molecular target: T1, human GITR
# Test: cell-based or functional assay
Proliferation (Fold over CD3) [fold over CD3],Proliferation EC50 [µg/mL],Binder
3.4,0.008,B1
1,0.033,B2
3.2,0.015,B3
1.4,0.021,B4
1.7,0.027,B5
2.1,0.028,B6
2,0.032,B7
3,0.024,B8
2.7,0.012,B9
1.2,0.113,B10
0.6,0.039,B11
1.9,0.031,B12
3.4,0.012,B13
2.1,0.018,B14
2.6,0.017,B15
3.1,0.025,B16
2.5,0.018,B17

Proliferation (Fold over CD3) [fold over CD3],Proliferation EC50 [µg/mL],Binder
55,0.046,B18
2.7,0.01,B19
1.5,0.011,B20
2.2,0.019,B21
2.5,0.012,B22
3.4,0.007,B23
0.7,0.043,B24
0.6,0.02,B25
3,0.007,B26
3.7,0.004,B27
3.2,0.004,B28
1.9,0.011,B29
2.2,0.015,B30
2.9,0.017,B31
3.3,0.007,B32
60,0.006,B33

# Molecular target: T1, human GITR
# Test: flow cytometry on activated human T cells
row,EC50 [µg/mL],Binder
1,0.303,B1
2,0.293,B3
3,0.786,B5
4,0.461,B6
5,0.804,B9
6,0.995,B12
7,0.067,B13
8,0.078,B14
9,0.082,B15
10,0.056,B16
11,0.068,B17
12,0.003,B18
13,0.06,B19
14,0.411,B20
15,0.423,B21
16,0.064,B22
17,0.06,B23
18,0.861,B24
19,0.783,B25
20,0.134,B26
21,0.055,B27
22,0.144,B28
23,0.38,B29
24,0.068,B30
25,0.06,B31
26,0.095,B32
27,0.002,B33
